The results in this text go back to US20210070882A1.

This assay concerns the target human CD19 (human) (UniProt P15391). Briefly: cell-based or functional assay.

human CD19 (human), sequence (P15391 20-556): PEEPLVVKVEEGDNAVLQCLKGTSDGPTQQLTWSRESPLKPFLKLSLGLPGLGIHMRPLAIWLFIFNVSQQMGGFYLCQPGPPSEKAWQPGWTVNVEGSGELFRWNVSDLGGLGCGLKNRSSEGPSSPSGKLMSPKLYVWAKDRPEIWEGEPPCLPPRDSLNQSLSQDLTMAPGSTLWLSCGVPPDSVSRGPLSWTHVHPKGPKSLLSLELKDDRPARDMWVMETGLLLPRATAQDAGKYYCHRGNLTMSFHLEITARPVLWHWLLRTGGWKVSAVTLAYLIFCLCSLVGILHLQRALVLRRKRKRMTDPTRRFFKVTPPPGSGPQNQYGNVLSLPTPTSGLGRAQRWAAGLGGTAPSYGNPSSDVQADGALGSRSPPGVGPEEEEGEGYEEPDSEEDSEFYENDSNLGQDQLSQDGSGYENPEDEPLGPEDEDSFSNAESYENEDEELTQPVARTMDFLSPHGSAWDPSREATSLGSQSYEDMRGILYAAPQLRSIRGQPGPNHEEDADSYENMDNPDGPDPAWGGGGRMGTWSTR

Blinatumomab (bispecific antibody) yielded a T cell activation EC50 upon Z-138 lysis, CD25/CD4 of 3.7 pM; a T cell activation EC50 upon Z-138 lysis, CD25/CD8 of 4.5 pM; a T cell activation EC50 upon Z-138 lysis, CD69/CD4 of 2.3 pM; a T cell activation EC50 upon Z-138 lysis, CD69/CD8 of 2.4 pM. The substance further displayed a Tumor cell lysis Z-138 cells (21 h), EC50 of 0.26 ng/mL and a Tumor cell lysis Z-138 cells (21 h), EC50 (pM) of 4.8 pM.
